The chains are these.
B1: FEM1A (parent)
chain: PCCSSSPEEPLNGESYESCCPTSR
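Note: lentivirally expressed fusions sorted by FACS into six bins by GFP to DsRed ratio, PSI derived from sequencing read proportions per bin multiplied by bin number.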

The variants in this data set derive from B1. Kind of data set: protein stability index of a GFP-peptide fusion (GPS, HEK-293T) (PSI 1-6); higher = more stable. As to conditions: c terminus: a fixed tail appended.
In the case of PCCSSSPEEPLNGESYESCCFTSR, the protein stability index was determined as 3.04.

On to PCCSSSPEEPLNGESYESCCCTSR, for which the protein stability index was 3.92. With PCCSSSPEEPLNGESYESCCKTSR the figure was 3.81; with PCCSSSPEEPLNGESYESCCWTSR, 2.62. Turning to PCCSSSPEEPLNGESYESCCITSR, the protein stability index was determined as 2.6. With PCCSSSPEEPLNGESYESCCRTSR the figure was 4.13; with PCCSSSPEEPLNGESYESCCGTSR, 3.78. In the case of PCCSSSPEEPLNGESYESCCDTSR, the protein stability index stood at 5. With PCCSSSPEEPLNGESYESCCMTSR, the protein stability index was 2.28. With PCCSSSPEEPLNGESYESCCHTSR, the protein stability index was determined as 3.71. With PCCSSSPEEPLNGESYESCCVTSR the figure was 3.1. With PCCSSSPEEPLNGESYESCCSTSR the figure was 3.09. With PCCSSSPEEPLNGESYESCCLTSR the figure was 3.51; with PCCSSSPEEPLNGESYESCCETSR, 4.19. In the case of PCCSSSPEEPLNGESYESCCQTSR, the protein stability index worked out at 4.17. As to PCCSSSPEEPLNGESYESCCYTSR, the protein stability index was found to be 3.01. With PCCSSSPEEPLNGESYESCCATSR the figure was 3.68. As for PCCSSSPEEPLNGESYESCCTTSR, the protein stability index is 3.76.

Consider PCCSSSPEEPLNGESYESCCNTSR, for which the protein stability index turned out to be 3.81. With PCCSSSPEEPLNGESYEYCCPTSR the figure was 3.07; with PCCSSSPEEPLNGESYERCCPTSR, 3.11; with PCCSSSPEEPLNGESYENCCPTSR, 3.68. PCCSSSPEEPLNGESYEPCCPTSR: the protein stability index stood at 4. Turning to PCCSSSPEEPLNGESYETCCPTSR, the protein stability index worked out at 4.19. As to PCCSSSPEEPLNGESYEWCCPTSR, the protein stability index is 2.5.

As to PCCSSSPEEPLNGESYEMCCPTSR, the protein stability index amounted to 3.06. With PCCSSSPEEPLNGESYELCCPTSR the figure was 3.01; with PCCSSSPEEPLNGESYEQCCPTSR, 4.02; with PCCSSSPEEPLNGESYEVCCPTSR, 3.45. With PCCSSSPEEPLNGESYESCCPTLR the figure was 3.86.

As for PCCSSSPEEPLNGESYESCCPTVR, the protein stability index was determined as 3.07. With PCCSSSPEEPLNGESYESCCPTKR the figure was 4.18; with PCCSSSPEEPLNGESYESCCPTHR, 3.6. With PCCSSSPEEPLNGESYESCCPTWR the figure was 3.43; with PCCSSSPEEPLNGESYESCCPTNR, 4.1; with PCCSSSPEEPLNGESYESCCPTQR, 4.31. With PCCSSSPEEPLNGESYESCCPTCR the figure was 4.2; with PCCSSSPEEPLNGESYESCCPTGR, 3.75.

Take PCCSSSPEEPLNGESYESCCPTYR: the protein stability index came to 3.09. With PCCSSSPEEPLNGESYESCCPTTR the figure was 4.13. Consider PCCSSSPEEPLNGESYESCCPTDR, for which the protein stability index is 5. With PCCSSSPEEPLNGESYESCCPTRR the figure was 2.95. For the variant PCCSSSPEEPLNGESYESCCPTPR, the protein stability index worked out at 3.52. With PCCSSSPEEPLNGESYESCCPTAR the figure was 4.35. With PCCSSSPEEPLNGESYESCCPTMR the figure was 4.05; with PCCSSSPEEPLNGESYESCCPTIR, 3.53. With PCCSSSPEEPLNGESYESCCPTFR the figure was 3.22. In the case of PCCSSSPEEPLNGESYESCCPTER, the protein stability index worked out at 4.42. With PCCSSSPEEPLNGESYESMCPTSR the figure was 3.49. Consider PCCSSSPEEPLNGESYESFCPTSR, for which the protein stability index was 3.76. As for PCCSSSPEEPLNGESYESKCPTSR, the protein stability index came to 4.25.

As to PCCSSSPEEPLNGESYESWCPTSR, the protein stability index worked out at 1.98. In the case of PCCSSSPEEPLNGESYESHCPTSR, the protein stability index was 3.57. As to PCCSSSPEEPLNGESYESACPTSR, the protein stability index amounted to 3.94. With PCCSSSPEEPLNGESYESECPTSR the figure was 4.54. With PCCSSSPEEPLNGESYESYCPTSR the figure was 3.72. With PCCSSSPEEPLNGESYESTCPTSR the figure was 3.56; with PCCSSSPEEPLNGESYESDCPTSR, 4.5; with PCCSSSPEEPLNGESYESVCPTSR, 3.89. PCCSSSPEEPLNGESYESLCPTSR: the protein stability index turned out to be 3.28. With PCCSSSPEEPLNGESYESICPTSR the figure was 3.72; with PCCSSSPEEPLNGESYESRCPTSR, 3.97. With PCCSSSPEEPLNGESYESQCPTSR the figure was 4.09; with PCCSSSPEEPLNGESYESGCPTSR, 3.61. With PCCSSSPEEPLNGESYESSCPTSR the figure was 4.11; with PCCSSSPEEPLNGESYESPCPTSR, 4.08. As to PCCSSSPEEPLNGESYESNCPTSR, the protein stability index amounted to 3.67. With PCCSSSPEEPLNGESYESCCPTSP the figure was 4.81; with PCCSSSPEEPLNGESYESCCPTSN, 4.96; with PCCSSSPEEPLNGESYESCCPTSY, 4.25.

As to PCCSSSPEEPLNGESYESCCPTSW, the protein stability index was determined as 3.05. With PCCSSSPEEPLNGESYESCCPTST the figure was 4.97; with PCCSSSPEEPLNGESYESCCPTSV, 4.34; with PCCSSSPEEPLNGESYESCCPTSE, 5.04. With PCCSSSPEEPLNGESYESCCPTSQ the figure was 5.08; with PCCSSSPEEPLNGESYESCCPTSI, 4.39.

Consider PCCSSSPEEPLNGESYESCCPTSA, for which the protein stability index turned out to be 4.81.

For PCCSSSPEEPLNGESYESCCPTSM, the protein stability index turned out to be 4.6. With PCCSSSPEEPLNGESYESCCPTSK the figure was 4.75. With PCCSSSPEEPLNGESYESCCPTSL the figure was 4.81; with PCCSSSPEEPLNGESYESCCPTSS, 5.27. With PCCSSSPEEPLNGESYESCCPTSG the figure was 5.14. Regarding PCCSSSPEEPLNGESYESCCPTSF, the protein stability index came out at 4.78.

As to PCCSSSPEEPLNGESYESCCPTSC, the protein stability index is 4.33. With PCCSSSPEEPLNGESYESCCPTSD the figure was 5.19; with PCCSSSPEEPLNGESYESCCPTSH, 4.75; with PCCSSSPEEPLNGESYESCCPESR, 4.53. As to PCCSSSPEEPLNGESYESCCPISR, the protein stability index was found to be 3.38. With PCCSSSPEEPLNGESYESCCPASR the figure was 3.99. With PCCSSSPEEPLNGESYESCCPSSR the figure was 4.04; with PCCSSSPEEPLNGESYESCCPHSR, 3.37. With PCCSSSPEEPLNGESYESCCPNSR the figure was 3.9.

Regarding PCCSSSPEEPLNGESYESCCPKSR, the protein stability index was found to be 3.79. With PCCSSSPEEPLNGESYESCCPCSR the figure was 4.41. With PCCSSSPEEPLNGESYESCCPFSR the figure was 3.36; with PCCSSSPEEPLNGESYESCCPQSR, 4.21; with PCCSSSPEEPLNGESYESCCPRSR, 3.09. With PCCSSSPEEPLNGESYESCCPMSR the figure was 3.45; with PCCSSSPEEPLNGESYESCCPLSR, 3.66. As to PCCSSSPEEPLNGESYESCCPPSR, the protein stability index is 3.13.

Turning to PCCSSSPEEPLNGESYESCCPDSR, the protein stability index stood at 4.61. With PCCSSSPEEPLNGESYESCCPYSR the figure was 3.5; with PCCSSSPEEPLNGESYESCCPGSR, 3.53; with PCCSSSPEEPLNGESYESCCPWSR, 3.78.

For the variant PCCSSSPEEPLNGESYESCCPVSR, the protein stability index came to 3.35. With PCCSSSPEEPLNGESYESCHPTSR the figure was 3.32; with PCCSSSPEEPLNGESYESCSPTSR, 4.14; with PCCSSSPEEPLNGESYESCAPTSR, 3.53. With PCCSSSPEEPLNGESYESCDPTSR the figure was 4.12.

Regarding PCCSSSPEEPLNGESYESCIPTSR, the protein stability index turned out to be 3.54. With PCCSSSPEEPLNGESYESCLPTSR the figure was 3.7. With PCCSSSPEEPLNGESYESCEPTSR the figure was 4.24. With PCCSSSPEEPLNGESYESCMPTSR the figure was 3.18; with PCCSSSPEEPLNGESYESCRPTSR, 4.08. With PCCSSSPEEPLNGESYESCKPTSR, the protein stability index was 3.31. For the variant PCCSSSPEEPLNGESYESCTPTSR, the protein stability index was determined as 3.91. With PCCSSSPEEPLNGESYESCQPTSR the figure was 3.54; with PCCSSSPEEPLNGESYESCYPTSR, 3.38. With PCCSSSPEEPLNGESYESCGPTSR the figure was 3.25; with PCCSSSPEEPLNGESYESCWPTSR, 3.69; with PCCSSSPEEPLNGESYESCFPTSR, 2.91. Consider PCCSSSPEEPLNGESYESCVPTSR, for which the protein stability index was found to be 3.47. With PCCSSSPEEPLNGESYESCNPTSR the figure was 4.35. With PCCSSSPEEPLNGESYESCPPTSR the figure was 3.06.
